“And” between values parts separate entries of the source, which are not always exact repeats. Equal values may be shown once.
Test system: CD123+ MOLM14 cells
Assay: Flow cytometry based cytotoxicity assay, sCAR-T cells + anti-CD123 Fab switches
Assay type: cell-based
Details: duplicates
Method: FIG. 38A illustrates multiple fusion/grafting locations: A=LCNT1 (light chain N terminus version 1), B=HCNT3 (heavy chain N terminus version 3), C=heavy chain C terminus, and D=light chain C terminus). […] Data shown are an average of duplicate samples, and error bars represent SD. Only the NT switches plus the BvCT and By CH1CL1 as references are depicted.
The flow cytometry based cytotoxicity assay were performed in RPMI-1640 media supplemented with 5% heat inactivated FBS, 1% Pen/Strep, 1% glutamine, and 1% Sodium pyruvate. Target cells (2×10^4 cells) were pre-labeled with CellVue Claret Far Red Fluorescent Cell linker (Sigma-Aldrich) and co-cultured with 1×10^5 sCAR-T cells. Variable concentration of switch was added to assess in vitro activity. This assay was conducted in a volume of 100 ul in 96-well U bottom plate for 24 hours, after which the cells were stained with 7-AAD viability dye (1:100; BD Biosciences) in FACs staining buffer (PBS with 2 mM EDTA and 1% FCS) and acquired on BD Accuri C6 flow cytometer. The viability was calculated as following formula: […]=[(no switch viable target cells-experimental viable target cells)/no switch viable target cells]*100
Activity was confirmed by flow cytometry based cytotoxicity assay (FIG. 38J & FIG. 38K). FIG. 38J and Table 31. […] FIG. 38K and Table 32.

B1: 32716 NTBv: anti-CD123 clone 32716 Fab, N-terminal bivalent (protein)
light: NYHLENEVARLKKLGGGGSDIVLTQSPASLAVSLGQRATISCRASESVDNYGNTFMHWYQQKPGQPPKLLIYRASNLESGIPARFSGSGSRTDFTLTINPVEADDVATYYCQQSNEDPPTFGAGTKLELRTVAAPSVFIFPPSDEQLKSGTASVVCLLNNFYPREAKVQWKVDNALQSGNSQESVTEQDSKDSTYSLSSTLTLSKADYEKHKVYACEVTHQGLSSPVTKSFNRGEC
heavy: NYHLENEVARLKKLLVGEAAAKEAAAKAQIQLVQSGPELKKPGETVKISCKASGYIFTNYGMNWVKQAPGKSFKWMGWINTYTGESTYSADFKGRFAFSLETSASTAYLHINDLKNEDTATYFCARSGGYDPMDYWGQGTSVTVSSARTKGPSVFPLAPSSKSTSGGTAALGCLVKDYFPEPVTVSWNSGALTSGVHTFPAVLQSSGLYSLSSVVTVPSSSLGTQTYICNVNHKPSNTKVDKKVEPKSC
Percent of cytotoxicity in target cells (FIG. 38K, clone 32716, switch 0.01 pM): 0%
Percent of cytotoxicity in target cells (FIG. 38K, clone 32716, switch 0.128 pM): 2.2% and 3.1%
Percent of cytotoxicity in target cells (FIG. 38K, clone 32716, switch 0.64 pM): 1.6% and −6.4%
Percent of cytotoxicity in target cells (FIG. 38K, clone 32716, switch 3.2 pM): 6.4% and 0.2%
Percent of cytotoxicity in target cells (FIG. 38K, clone 32716, switch 16 pM): 13.7% and 12.6%
Percent of cytotoxicity in target cells (FIG. 38K, clone 32716, switch 80 pM): 27% and 28.5%
Percent of cytotoxicity in target cells (FIG. 38K, clone 32716, switch 400 pM): 50.9% and 44.5%
Percent of cytotoxicity in target cells (FIG. 38K, clone 32716, switch 2000 pM): 60.9% and 55.7%
Percent of cytotoxicity in target cells (FIG. 38K, clone 32716, switch 10000 pM): 58.3% and 51%

B2: 26292 NTBv: anti-CD123 clone 26292 Fab, N-terminal bivalent (protein)
light: NYHLENEVARLKKLGGGGSDVQITQSPSYLAASPGETITINCRASKSISKDLAWYQEKPGKTNKLLIYSGSTLQSGIPSRFSGSGSGTDFTLTISSLEPEDFAMYYCQQHNKYPYTFGGGTKLEIRTVAAPSVFIFPPSDEQLKSGTASVVCLLNNFYPREAKVQWKVDNALQSGNSQESVTEQDSKDSTYSLSSTLTLSKADYEKHKVYACEVTHQGLSSPVTKSFNRGEC
heavy: NYHLENEVARLKKLLVGEAAAKEAAAKAQVQLQQPGAELVRPGASVKLSCKASGYTFTSYWMNWVKQRPDQGLEWIGRIDPYDSETHYNQKFKDKAILTVDKSSSTAYMQLSSLTSEDSAVYYCARGNWDDYWGQGTTLTVSSARTKGPSVFPLAPSSKSTSGGTAALGCLVKDYFPEPVTVSWNSGALTSGVHTFPAVLQSSGLYSLSSVVTVPSSSLGTQTYICNVNHKPSNTKVDKKVEPKSC
Percent of cytotoxicity in target cells (FIG. 38J, clone 26292, switch 0.01 pM): 0%
Percent of cytotoxicity in target cells (FIG. 38J, clone 26292, switch 0.128 pM): 2% and 3.4%
Percent of cytotoxicity in target cells (FIG. 38J, clone 26292, switch 0.64 pM): 7.4% and 6.4%
Percent of cytotoxicity in target cells (FIG. 38J, clone 26292, switch 3.2 pM): 9.8% and 4.1%
Percent of cytotoxicity in target cells (FIG. 38J, clone 26292, switch 16 pM): 16.5% and 19.3%
Percent of cytotoxicity in target cells (FIG. 38J, clone 26292, switch 80 pM): 31.4% and 33.2%
Percent of cytotoxicity in target cells (FIG. 38J, clone 26292, switch 400 pM): 57.5% and 55.5%
Percent of cytotoxicity in target cells (FIG. 38J, clone 26292, switch 2000 pM): 64.2% and 62.1%
Percent of cytotoxicity in target cells (FIG. 38J, clone 26292, switch 10000 pM): 55.3% and 57.4%

Source: patent US11091546B2, “Optimized PNE-based chimeric receptor T cell switches and uses thereof” (The Scripps Research Institute, priority 2015, dated 2021)
